Laboratory results: patent US20060093617A1
Where two headings read alike, the source gives them in different places.

What was measured:
HLA-DRB1*0101 (human) = assay: competition with 125I-labelled probe peptide on purified HLA-DR; details: remark: other sources report otherwise
HLA-A0301 (human) = assay: competition vs 125I-labelled probe peptide, purified soluble HLA
HLA-A0101 (human) = assay: competition with 125I-labelled probe peptide, purified HLA
HLA-A*0101 (human) = assay: competition with 125I-labelled probe peptide on purified HLA-A*0101
HLA-B*0702 (human) = assay: competition with 125I-labeled probe peptide, purified HLA
HLA-B0702 (human) [1] = assay: competition vs 125I-labelled probe peptide, purified soluble HLA
HLA-B0801 (human) [2] = assay: competition with 125I-labelled probe peptide, purified HLA
HLA-B0801 (human) [3] = assay: competition vs 125I probe peptide, purified HLA; details: remark: other sources report otherwise
HLA-B0702 (human) [4] = assay: competition with 125I-labelled probe peptide on purified soluble HLA; details: remark: other sources report otherwise
HLA-B0702 (human) [5] = assay: competition vs 125I probe peptide, purified HLA; details: remark: other sources report otherwise
HLA-B0702 (human) [6] = details: remark: other sources report otherwise

## SYTWTGALITPCAAE (modifications not checked)
HLA-DRB1*0101 (human)
  IC50: 5.63 nM

## YLFNWAVRTK (modifications not checked)
HLA-A0301 (human)
  Ki: < 1000 nM

## FTDNSSPPA (modifications not checked)
HLA-A0101 (human)
  Ki: 10 nM
HLA-A*0101 (human)
  IC50: 10 nM

## AAKLSALGL (modifications not checked)
HLA-B*0702 (human)
  IC50: 277 nM
HLA-B0702 (human) [1]
  Ki: 277 nM

## YLKGSSGGPL (modifications not checked)
HLA-B0801 (human) [2]
  Ki: 10 nM

## EARQAIRSL (modifications not checked)
HLA-B0801 (human) [3]
  Ki: 9 nM

## LHGPTPLLY (modifications not checked)
HLA-A0101 (human)
  Ki: 20000 nM

## QPRGRRQPI (modifications not checked)
HLA-B0702 (human) [4]
  Ki: 1 nM
HLA-B0801 (human) [2]; remark: other sources report otherwise
  Ki: 3 nM
HLA-B0702 (human) [5]
  Ki: 1 nM
HLA-B0702 (human) [6]
  Ki: < 1000 nM

## ARALAHGVRV (modifications not checked)
HLA-Cw0602 (human)
  Ki: 9880 nM
